# Measured values: IntAct's records for PubMed 36931259
# B1: 14-3-3 protein sigma (Homo sapiens), P31947 (parent)
# chain: MERASLIQKAKLAEQAERYEDMAAFMKGAVEKGEELSCEERNLLSVAYKNVVGGQRAAWRVLSSIEQKSNEEGSEEKGPEVREYREKVETELQGVCDTVLGLLDSHLIKEAGDAESRVFYLKMKGDYYRYLAEVATGDDKKRIIDSARSAYQEAMDISKKEMPPTNPIRLGLALNFSVFHYEIANSPEEAISLAKTTFDEAMADLHTLSEDSYKDSTLIMQLLRDNLTLWTADNAGEEGGEAPQEPQS
# Variants of: B1
# Conditions: with kpcg_human PRKCG
row,effect of a mutation on the interaction,Variant
1,decreasing interaction strength,MERASLIQKAKLAEQAERYEDMAAFMKGAVEKGEELSCEERNLLSVAYENVVGGQEAAWRVLSSIEQKSNEEGSEEKGPEVREYREKVETELQGVCDTVLGLLDSHLIKEAGDAESRVFYLKMKGDYYRYLAEVATGDDKKRIIDSARSAYQEAMDISKKEMPPTNPIRLGLALNFSDFHYEIANSPEEAISLAKTTFDEAMADLHTLSEDSYKDSTLIMQLLRDNLTLWTADNAGEEGGEAPQEPQS [K49E;R56E;V178D]

# Variants of: B1
# Conditions: with fak2_human PTK2B
row,effect of a mutation on the interaction,Variant
1,decreasing interaction strength,MERASLIQKAKLAEQAERYEDMAAFMKGAVEKGEELSCEERNLLSVAYENVVGGQEAAWRVLSSIEQKSNEEGSEEKGPEVREYREKVETELQGVCDTVLGLLDSHLIKEAGDAESRVFYLKMKGDYYRYLAEVATGDDKKRIIDSARSAYQEAMDISKKEMPPTNPIRLGLALNFSDFHYEIANSPEEAISLAKTTFDEAMADLHTLSEDSYKDSTLIMQLLRDNLTLWTADNAGEEGGEAPQEPQS [K49E;R56E;V178D]

# Variants of: B1
# Conditions: with cdk3_human CDK3, Q00526
# cdk3_human CDK3, Q00526, sequence (Q00526 whole entry, looked up): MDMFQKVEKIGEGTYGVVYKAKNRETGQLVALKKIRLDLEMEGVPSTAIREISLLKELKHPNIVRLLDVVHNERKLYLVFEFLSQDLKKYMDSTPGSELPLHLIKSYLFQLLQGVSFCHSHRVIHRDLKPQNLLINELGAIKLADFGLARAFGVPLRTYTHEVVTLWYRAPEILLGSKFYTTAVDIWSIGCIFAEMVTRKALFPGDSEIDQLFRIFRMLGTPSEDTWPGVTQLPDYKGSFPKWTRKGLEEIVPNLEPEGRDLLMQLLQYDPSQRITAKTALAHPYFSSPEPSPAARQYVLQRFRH
row,effect of a mutation on the interaction,Variant
1,decreasing interaction strength,MERASLIQKAKLAEQAERYEDMAAFMKGAVEKGEELSCEERNLLSVAYENVVGGQEAAWRVLSSIEQKSNEEGSEEKGPEVREYREKVETELQGVCDTVLGLLDSHLIKEAGDAESRVFYLKMKGDYYRYLAEVATGDDKKRIIDSARSAYQEAMDISKKEMPPTNPIRLGLALNFSDFHYEIANSPEEAISLAKTTFDEAMADLHTLSEDSYKDSTLIMQLLRDNLTLWTADNAGEEGGEAPQEPQS [K49E;R56E;V178D]

# Variants of: B1
# Conditions: with limk1_human LIMK1, P53667
# limk1_human LIMK1, P53667, sequence (P53667 whole entry, looked up): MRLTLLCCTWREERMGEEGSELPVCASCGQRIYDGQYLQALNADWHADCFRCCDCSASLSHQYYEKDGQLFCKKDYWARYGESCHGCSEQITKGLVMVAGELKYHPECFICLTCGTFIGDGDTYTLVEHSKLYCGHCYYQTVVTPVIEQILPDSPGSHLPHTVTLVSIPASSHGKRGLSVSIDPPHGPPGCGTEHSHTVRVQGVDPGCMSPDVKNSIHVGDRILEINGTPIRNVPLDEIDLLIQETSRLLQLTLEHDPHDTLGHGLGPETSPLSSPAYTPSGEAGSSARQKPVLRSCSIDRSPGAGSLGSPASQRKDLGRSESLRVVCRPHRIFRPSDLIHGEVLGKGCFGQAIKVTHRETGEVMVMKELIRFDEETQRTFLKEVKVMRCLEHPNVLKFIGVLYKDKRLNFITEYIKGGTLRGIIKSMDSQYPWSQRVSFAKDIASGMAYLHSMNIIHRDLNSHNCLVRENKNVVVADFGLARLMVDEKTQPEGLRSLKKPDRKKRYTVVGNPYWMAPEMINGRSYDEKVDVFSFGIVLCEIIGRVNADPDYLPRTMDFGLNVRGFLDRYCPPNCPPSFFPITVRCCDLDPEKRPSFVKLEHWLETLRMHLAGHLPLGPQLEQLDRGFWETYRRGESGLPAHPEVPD
row,effect of a mutation on the interaction,Variant
1,decreasing interaction strength,MERASLIQKAKLAEQAERYEDMAAFMKGAVEKGEELSCEERNLLSVAYENVVGGQEAAWRVLSSIEQKSNEEGSEEKGPEVREYREKVETELQGVCDTVLGLLDSHLIKEAGDAESRVFYLKMKGDYYRYLAEVATGDDKKRIIDSARSAYQEAMDISKKEMPPTNPIRLGLALNFSDFHYEIANSPEEAISLAKTTFDEAMADLHTLSEDSYKDSTLIMQLLRDNLTLWTADNAGEEGGEAPQEPQS [K49E;R56E;V178D]

# Variants of: B1
# Conditions: with pak6_human PAK6, Q9NQU5
# pak6_human PAK6, Q9NQU5, sequence (Q9NQU5 whole entry, looked up): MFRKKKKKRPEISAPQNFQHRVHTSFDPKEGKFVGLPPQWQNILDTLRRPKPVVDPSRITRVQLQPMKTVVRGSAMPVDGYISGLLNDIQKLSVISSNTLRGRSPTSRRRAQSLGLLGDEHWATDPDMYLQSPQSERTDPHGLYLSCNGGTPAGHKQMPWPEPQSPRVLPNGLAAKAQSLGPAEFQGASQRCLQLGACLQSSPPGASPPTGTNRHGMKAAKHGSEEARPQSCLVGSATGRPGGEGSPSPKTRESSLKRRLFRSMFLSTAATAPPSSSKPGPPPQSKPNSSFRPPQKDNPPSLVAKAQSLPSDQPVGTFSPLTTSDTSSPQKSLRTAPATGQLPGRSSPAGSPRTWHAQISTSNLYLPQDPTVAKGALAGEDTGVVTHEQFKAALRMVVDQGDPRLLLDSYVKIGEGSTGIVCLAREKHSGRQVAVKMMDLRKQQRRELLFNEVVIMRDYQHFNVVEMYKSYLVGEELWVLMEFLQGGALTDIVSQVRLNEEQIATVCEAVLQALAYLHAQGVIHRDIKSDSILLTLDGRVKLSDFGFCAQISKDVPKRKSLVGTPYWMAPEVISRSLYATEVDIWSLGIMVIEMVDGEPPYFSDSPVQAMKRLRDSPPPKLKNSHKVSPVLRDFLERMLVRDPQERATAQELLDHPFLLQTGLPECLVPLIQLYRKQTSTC
row,effect of a mutation on the interaction,Variant
1,decreasing interaction strength,MERASLIQKAKLAEQAERYEDMAAFMKGAVEKGEELSCEERNLLSVAYENVVGGQEAAWRVLSSIEQKSNEEGSEEKGPEVREYREKVETELQGVCDTVLGLLDSHLIKEAGDAESRVFYLKMKGDYYRYLAEVATGDDKKRIIDSARSAYQEAMDISKKEMPPTNPIRLGLALNFSDFHYEIANSPEEAISLAKTTFDEAMADLHTLSEDSYKDSTLIMQLLRDNLTLWTADNAGEEGGEAPQEPQS [K49E;R56E;V178D]

# Variants of: B1
# Conditions: with igf1r_human IGF1R
row,effect of a mutation on the interaction,Variant
1,decreasing interaction strength,MERASLIQKAKLAEQAERYEDMAAFMKGAVEKGEELSCEERNLLSVAYENVVGGQEAAWRVLSSIEQKSNEEGSEEKGPEVREYREKVETELQGVCDTVLGLLDSHLIKEAGDAESRVFYLKMKGDYYRYLAEVATGDDKKRIIDSARSAYQEAMDISKKEMPPTNPIRLGLALNFSDFHYEIANSPEEAISLAKTTFDEAMADLHTLSEDSYKDSTLIMQLLRDNLTLWTADNAGEEGGEAPQEPQS [K49E;R56E;V178D]

# Variants of: B1
# Conditions: with aapk2_human PRKAA2, P54646
# aapk2_human PRKAA2, P54646, sequence (P54646 whole entry, looked up): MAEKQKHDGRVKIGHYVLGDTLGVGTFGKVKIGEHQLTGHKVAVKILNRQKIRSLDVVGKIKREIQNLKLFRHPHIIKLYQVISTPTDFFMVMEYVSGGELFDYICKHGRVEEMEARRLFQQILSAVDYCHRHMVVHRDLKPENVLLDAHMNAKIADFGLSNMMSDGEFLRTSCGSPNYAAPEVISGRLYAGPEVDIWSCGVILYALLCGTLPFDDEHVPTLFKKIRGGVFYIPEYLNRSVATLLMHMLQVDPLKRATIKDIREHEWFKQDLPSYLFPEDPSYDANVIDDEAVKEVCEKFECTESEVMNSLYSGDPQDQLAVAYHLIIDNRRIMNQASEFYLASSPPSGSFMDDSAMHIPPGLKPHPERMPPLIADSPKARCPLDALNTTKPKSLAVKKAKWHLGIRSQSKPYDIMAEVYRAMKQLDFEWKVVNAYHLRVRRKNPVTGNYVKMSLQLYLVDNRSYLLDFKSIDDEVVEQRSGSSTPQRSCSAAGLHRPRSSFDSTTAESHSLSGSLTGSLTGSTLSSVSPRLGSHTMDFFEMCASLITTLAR
row,effect of a mutation on the interaction,Variant
1,decreasing interaction strength,MERASLIQKAKLAEQAERYEDMAAFMKGAVEKGEELSCEERNLLSVAYENVVGGQEAAWRVLSSIEQKSNEEGSEEKGPEVREYREKVETELQGVCDTVLGLLDSHLIKEAGDAESRVFYLKMKGDYYRYLAEVATGDDKKRIIDSARSAYQEAMDISKKEMPPTNPIRLGLALNFSDFHYEIANSPEEAISLAKTTFDEAMADLHTLSEDSYKDSTLIMQLLRDNLTLWTADNAGEEGGEAPQEPQS [K49E;R56E;V178D]

# Variants of: B1
# Conditions: with pak4_human PAK4, O96013
# pak4_human PAK4, O96013, sequence (O96013 whole entry, looked up): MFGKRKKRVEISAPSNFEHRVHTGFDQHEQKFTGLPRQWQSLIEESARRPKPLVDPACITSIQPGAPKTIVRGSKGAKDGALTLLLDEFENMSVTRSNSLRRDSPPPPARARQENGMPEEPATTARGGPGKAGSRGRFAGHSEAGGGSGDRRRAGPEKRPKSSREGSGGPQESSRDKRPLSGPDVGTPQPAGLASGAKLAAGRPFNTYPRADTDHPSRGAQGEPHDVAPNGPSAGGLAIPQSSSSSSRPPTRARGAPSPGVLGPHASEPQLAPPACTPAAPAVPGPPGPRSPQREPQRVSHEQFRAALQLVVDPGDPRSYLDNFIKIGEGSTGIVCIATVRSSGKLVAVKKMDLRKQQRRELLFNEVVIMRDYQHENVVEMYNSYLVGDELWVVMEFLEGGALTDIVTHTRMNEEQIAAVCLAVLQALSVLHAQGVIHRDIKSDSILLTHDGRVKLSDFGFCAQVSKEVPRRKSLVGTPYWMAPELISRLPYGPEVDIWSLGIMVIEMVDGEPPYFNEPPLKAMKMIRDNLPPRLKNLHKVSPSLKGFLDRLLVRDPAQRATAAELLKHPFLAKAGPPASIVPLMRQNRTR
row,effect of a mutation on the interaction,Variant
1,decreasing interaction strength,MERASLIQKAKLAEQAERYEDMAAFMKGAVEKGEELSCEERNLLSVAYENVVGGQEAAWRVLSSIEQKSNEEGSEEKGPEVREYREKVETELQGVCDTVLGLLDSHLIKEAGDAESRVFYLKMKGDYYRYLAEVATGDDKKRIIDSARSAYQEAMDISKKEMPPTNPIRLGLALNFSDFHYEIANSPEEAISLAKTTFDEAMADLHTLSEDSYKDSTLIMQLLRDNLTLWTADNAGEEGGEAPQEPQS [K49E;R56E;V178D]

# Variants of: B1
# Conditions: with pgfra_human PDGFRA
row,effect of a mutation on the interaction,Variant
1,decreasing interaction strength,MERASLIQKAKLAEQAERYEDMAAFMKGAVEKGEELSCEERNLLSVAYENVVGGQEAAWRVLSSIEQKSNEEGSEEKGPEVREYREKVETELQGVCDTVLGLLDSHLIKEAGDAESRVFYLKMKGDYYRYLAEVATGDDKKRIIDSARSAYQEAMDISKKEMPPTNPIRLGLALNFSDFHYEIANSPEEAISLAKTTFDEAMADLHTLSEDSYKDSTLIMQLLRDNLTLWTADNAGEEGGEAPQEPQS [K49E;R56E;V178D]

# Variants of: B1
# Conditions: with cdk17_human CDK17, Q00537
# cdk17_human CDK17, Q00537, sequence (Q00537 whole entry, looked up): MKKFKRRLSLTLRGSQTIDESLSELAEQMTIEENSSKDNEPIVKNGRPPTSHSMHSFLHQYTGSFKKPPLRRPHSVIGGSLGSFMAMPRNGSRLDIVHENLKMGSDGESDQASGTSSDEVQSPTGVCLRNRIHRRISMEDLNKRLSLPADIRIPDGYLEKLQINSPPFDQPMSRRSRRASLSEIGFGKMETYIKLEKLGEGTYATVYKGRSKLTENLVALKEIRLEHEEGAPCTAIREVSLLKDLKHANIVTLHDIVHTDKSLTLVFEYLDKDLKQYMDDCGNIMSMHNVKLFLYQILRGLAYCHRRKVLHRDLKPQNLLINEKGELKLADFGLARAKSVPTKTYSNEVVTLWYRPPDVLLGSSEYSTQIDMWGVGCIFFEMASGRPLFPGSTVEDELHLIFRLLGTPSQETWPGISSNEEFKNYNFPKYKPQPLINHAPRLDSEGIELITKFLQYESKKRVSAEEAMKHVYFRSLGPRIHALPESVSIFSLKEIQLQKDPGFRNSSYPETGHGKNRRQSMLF
row,effect of a mutation on the interaction,Variant
1,decreasing interaction strength,MERASLIQKAKLAEQAERYEDMAAFMKGAVEKGEELSCEERNLLSVAYENVVGGQEAAWRVLSSIEQKSNEEGSEEKGPEVREYREKVETELQGVCDTVLGLLDSHLIKEAGDAESRVFYLKMKGDYYRYLAEVATGDDKKRIIDSARSAYQEAMDISKKEMPPTNPIRLGLALNFSDFHYEIANSPEEAISLAKTTFDEAMADLHTLSEDSYKDSTLIMQLLRDNLTLWTADNAGEEGGEAPQEPQS [K49E;R56E;V178D]

# Variants of: B1
# Conditions: with mink1_human MINK1, Q8N4C8
# mink1_human MINK1, Q8N4C8, sequence (Q8N4C8 whole entry, looked up): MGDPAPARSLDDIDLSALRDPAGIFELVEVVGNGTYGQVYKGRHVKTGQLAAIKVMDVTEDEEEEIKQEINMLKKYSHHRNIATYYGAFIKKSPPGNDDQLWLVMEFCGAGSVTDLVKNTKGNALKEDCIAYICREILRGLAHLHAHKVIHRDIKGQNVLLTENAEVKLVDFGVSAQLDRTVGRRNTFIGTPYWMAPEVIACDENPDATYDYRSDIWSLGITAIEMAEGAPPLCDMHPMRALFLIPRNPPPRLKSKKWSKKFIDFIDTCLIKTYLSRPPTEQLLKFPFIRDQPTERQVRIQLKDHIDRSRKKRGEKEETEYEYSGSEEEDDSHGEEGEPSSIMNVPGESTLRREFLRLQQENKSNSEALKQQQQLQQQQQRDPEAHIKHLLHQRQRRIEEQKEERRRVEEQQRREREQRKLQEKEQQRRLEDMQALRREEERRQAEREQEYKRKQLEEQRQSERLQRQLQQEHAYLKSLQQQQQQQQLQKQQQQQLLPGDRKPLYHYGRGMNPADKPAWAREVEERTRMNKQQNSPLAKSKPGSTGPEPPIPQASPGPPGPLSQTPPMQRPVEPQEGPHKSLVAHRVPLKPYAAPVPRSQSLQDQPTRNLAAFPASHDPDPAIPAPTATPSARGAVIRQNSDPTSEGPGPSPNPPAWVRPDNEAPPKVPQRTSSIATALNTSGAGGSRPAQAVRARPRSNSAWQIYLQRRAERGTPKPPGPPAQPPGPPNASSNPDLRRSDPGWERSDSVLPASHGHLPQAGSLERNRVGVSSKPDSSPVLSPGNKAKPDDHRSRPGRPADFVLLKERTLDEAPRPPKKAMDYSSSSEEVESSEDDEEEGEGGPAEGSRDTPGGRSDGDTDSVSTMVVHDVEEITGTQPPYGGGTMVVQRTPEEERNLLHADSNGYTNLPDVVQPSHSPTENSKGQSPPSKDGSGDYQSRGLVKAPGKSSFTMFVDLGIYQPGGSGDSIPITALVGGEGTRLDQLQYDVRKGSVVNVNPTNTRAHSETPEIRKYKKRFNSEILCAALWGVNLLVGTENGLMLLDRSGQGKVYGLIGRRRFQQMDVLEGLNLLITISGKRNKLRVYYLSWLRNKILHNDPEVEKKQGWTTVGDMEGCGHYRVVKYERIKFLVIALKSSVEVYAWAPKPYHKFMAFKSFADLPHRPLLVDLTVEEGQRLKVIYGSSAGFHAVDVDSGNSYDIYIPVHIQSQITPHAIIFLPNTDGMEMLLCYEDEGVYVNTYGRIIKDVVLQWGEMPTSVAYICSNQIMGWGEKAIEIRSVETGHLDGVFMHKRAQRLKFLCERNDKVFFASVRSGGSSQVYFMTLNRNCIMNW
row,effect of a mutation on the interaction,Variant
1,decreasing interaction strength,MERASLIQKAKLAEQAERYEDMAAFMKGAVEKGEELSCEERNLLSVAYENVVGGQEAAWRVLSSIEQKSNEEGSEEKGPEVREYREKVETELQGVCDTVLGLLDSHLIKEAGDAESRVFYLKMKGDYYRYLAEVATGDDKKRIIDSARSAYQEAMDISKKEMPPTNPIRLGLALNFSDFHYEIANSPEEAISLAKTTFDEAMADLHTLSEDSYKDSTLIMQLLRDNLTLWTADNAGEEGGEAPQEPQS [K49E;R56E;V178D]

# Variants of: B1
# Conditions: with kcc2d_human CAMK2D
row,effect of a mutation on the interaction,Variant
1,decreasing interaction strength,MERASLIQKAKLAEQAERYEDMAAFMKGAVEKGEELSCEERNLLSVAYENVVGGQEAAWRVLSSIEQKSNEEGSEEKGPEVREYREKVETELQGVCDTVLGLLDSHLIKEAGDAESRVFYLKMKGDYYRYLAEVATGDDKKRIIDSARSAYQEAMDISKKEMPPTNPIRLGLALNFSDFHYEIANSPEEAISLAKTTFDEAMADLHTLSEDSYKDSTLIMQLLRDNLTLWTADNAGEEGGEAPQEPQS [K49E;R56E;V178D]

# Variants of: B1
# Conditions: with kcc2a_human CAMK2A
row,effect of a mutation on the interaction,Variant
1,decreasing interaction strength,MERASLIQKAKLAEQAERYEDMAAFMKGAVEKGEELSCEERNLLSVAYENVVGGQEAAWRVLSSIEQKSNEEGSEEKGPEVREYREKVETELQGVCDTVLGLLDSHLIKEAGDAESRVFYLKMKGDYYRYLAEVATGDDKKRIIDSARSAYQEAMDISKKEMPPTNPIRLGLALNFSDFHYEIANSPEEAISLAKTTFDEAMADLHTLSEDSYKDSTLIMQLLRDNLTLWTADNAGEEGGEAPQEPQS [K49E;R56E;V178D]

# Variants of: B1
# Conditions: with dapk2_human DAPK2, Q9UIK4
# dapk2_human DAPK2, Q9UIK4, sequence (Q9UIK4 whole entry, looked up): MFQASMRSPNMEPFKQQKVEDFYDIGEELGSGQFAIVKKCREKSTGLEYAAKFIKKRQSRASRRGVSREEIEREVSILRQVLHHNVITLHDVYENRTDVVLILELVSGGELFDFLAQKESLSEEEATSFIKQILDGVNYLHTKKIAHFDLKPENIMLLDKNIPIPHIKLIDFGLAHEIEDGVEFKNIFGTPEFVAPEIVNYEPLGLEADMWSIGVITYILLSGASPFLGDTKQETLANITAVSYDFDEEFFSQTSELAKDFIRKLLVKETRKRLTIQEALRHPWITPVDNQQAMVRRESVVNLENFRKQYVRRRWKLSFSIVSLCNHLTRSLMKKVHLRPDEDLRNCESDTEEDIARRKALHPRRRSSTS
row,effect of a mutation on the interaction,Variant
1,decreasing interaction strength,MERASLIQKAKLAEQAERYEDMAAFMKGAVEKGEELSCEERNLLSVAYENVVGGQEAAWRVLSSIEQKSNEEGSEEKGPEVREYREKVETELQGVCDTVLGLLDSHLIKEAGDAESRVFYLKMKGDYYRYLAEVATGDDKKRIIDSARSAYQEAMDISKKEMPPTNPIRLGLALNFSDFHYEIANSPEEAISLAKTTFDEAMADLHTLSEDSYKDSTLIMQLLRDNLTLWTADNAGEEGGEAPQEPQS [K49E;R56E;V178D]

# Variants of: B1
# Conditions: with m4k1_human MAP4K1, Q92918
row,effect of a mutation on the interaction,Variant
1,decreasing interaction strength,MERASLIQKAKLAEQAERYEDMAAFMKGAVEKGEELSCEERNLLSVAYENVVGGQEAAWRVLSSIEQKSNEEGSEEKGPEVREYREKVETELQGVCDTVLGLLDSHLIKEAGDAESRVFYLKMKGDYYRYLAEVATGDDKKRIIDSARSAYQEAMDISKKEMPPTNPIRLGLALNFSDFHYEIANSPEEAISLAKTTFDEAMADLHTLSEDSYKDSTLIMQLLRDNLTLWTADNAGEEGGEAPQEPQS [K49E;R56E;V178D]
